Source: paper PMC9982451

T1: SBDMmo (sulfur binding domain of Type IV REase MmoMcrA) (Morganella morganii)
T1 chain: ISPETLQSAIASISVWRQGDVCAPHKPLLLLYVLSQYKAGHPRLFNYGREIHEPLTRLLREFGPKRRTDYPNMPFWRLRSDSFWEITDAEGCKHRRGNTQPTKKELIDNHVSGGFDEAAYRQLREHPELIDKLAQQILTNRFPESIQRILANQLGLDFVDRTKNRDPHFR


Target: T1, SBDMmo (sulfur binding domain of Type …)
Assay: EMSA

Row | Binder | binding result
1 | PT-dsDNA GGCC-10F/10R (dsDNA, phosphorothioate between G4 and G5 of strand 1 (hemi-PT; stereochemistry not stated)) DNA 1: GTCGGCCCCA DNA 2: TGGGGCCGAC | binds
2 | GTCGGCCCCA (ssDNA, phosphorothioate between G4 and G5 (stereochemistry not stated)) [PT-ssDNA GGCC-10F] | no binding
